Source: US20210380994A1, “LACTOCOCCUS LACTIS EXPRESSION SYSTEM FOR DELIVERING PROTEINS EFFICACIOUS FOR THE TREATMENT OF EPITHELIAL BARRIER FUNCTION DISORDERS” (Second Genome, Inc., priority 2018, published 2021)
Read-outs that look alike come from different tables or passages of the source.

What was measured:
[1] = for Carbamidomethy C147, VDGEICYVSCQNVK (SEQ ID NO: 18) / Carbamidomethy C151, VDGEICYVSCQNVK (SEQ ID NO: 18): artificial carbamidomethylation by iodoacetamide
[2] = stability by analytical size exclusion chromatography and Ellman's reagent assay (Example 9); assay type: physicochemical
Experimental: The stability of SG-11 (SEQ ID NO:9) was evaluated following the incubation at 37° C. for one week and at 4° C. for 3 weeks in Buffer C (100 mM sodium phosphate, pH 7.0, 0.5 M sorbitol). The stability was assessed by monitoring aggregation formation with analytical size exclusion chromatography (SEC) equilibrated with Buffer D (100 mM sodium phosphate, pH 7.0, 10% glycerol). […] The cause of the aggregation was investigated as follows. There are two cysteine residues found in SG-11 at positions 147 and 151 (relative to SEQ ID NO:7). […] As free sulphydryl groups could cause aggregation by forming unpreferable intermolecular disulfide bonds, it was examined whether the presence of reducing agent, such as β-mercaptoethanol, could prevent the aggregation.

B1: SG-11: Roseburia hominis protein comprising SEQ ID NO:3; tested as SEQ ID NO:5, SEQ ID NO:7 or FLAG-tagged SEQ ID NO:9 (protein, listed as Rosburia hominis)
chain: LEGEESVVYVGKKGVIASLDVETLDQSYYDETELKSYVDAEVEDYTAEHGKNAVKVESLKVEDGVAKLKMKYKTPEDYTAFNGIELYQGKVVASLAAGYVYDGEFARVEEGKVVGAATKQDIYSEDDLKVAIIRANTDVKVDGEICYVSCQNVKLTGKDSVSIRDGYYLETGSVTASVDVTGQESVGTEQLSGTEQMEMTGEPVNADDTEQTEAAAGDGSFETDVYTFIVYK
In the case of B1, the “aggregates (SEC-HPLC)” value ([1]; 4° C., 2 weeks, 1 mg/ml) is reported as “low level of aggregates”, the “aggregation (SEC-HPLC)” value ([1]; 37° C., 2 weeks, 1 mg/ml) is reported as “major aggregation occurred” and the “Deamdation N206, GYYLETGSV...TFIVYK (SEQ ID NO: 29)” value (“Deamdation N206 … (SEQ ID NO: 29)” for short) ([1]; 40° C. for two weeks) is reported as 3.62%. The “Deamidation N83, TPEDYTAFNGIELYQGX (SEQ ID NO: 26)” value ([1]; 40° C. for two weeks) was 99.88%, the “Deamidation N83 Deamidation Q89, TPEDYTAFNGIELYQGX (SEQ ID NO: 26)” value ([1]; 40° C. for two weeks) was 0.12% and the “Deamidation N137, ANTDVK (SEQ ID NO: 27)” value ([1]; 40° C. for two weeks) was 14.61%. The “Deamidation N153, VDGEICYVSCQNVK (SEQ ID NO: 18)” value ([1]; 40° C. for two weeks) was 0%, the “Deamidation Q30, GVIASLDVETLDQSYYDETELK (SEQ ID NO: 25)” value (shortened to “Deamidation Q30 … (SEQ ID NO: 25)”) ([1]; 40° C. for two weeks) was 0.09% and the “Deamidation Q152 Deamidation N153 Carbamidomethy C151, VDGEICYVSCQNVK (SEQ ID NO: 18)” value ([1]; 40° C. for two weeks) was 3.1%. For the same molecule, the “No modification, ANTDVK (SEQ ID NO: 27)” value ([1]; 40° C. for two weeks) was 85.39%, the “No modification, GVIASLDVETLDQSYYDETELK (SEQ ID NO: 25)” value (“No modification … (SEQ ID NO: 25)” below) ([1]; 40° C. for two weeks) was 99.91% and the “No modification, GYYLETGSVTASVDVTGQESVGTEQLSGTEQMEMTGEPVNADDTEQTEAAAGDGSFETDVYTFIVYK (SEQ ID NO: 29)” value ([1]; 40° C. for two weeks) was 96.38%. The “No modification, MLEGEESVVYVGK (SEQ ID NO: 24)” value (from here on “No modification, MLEGEESVVYVGK”) ([1]; 40° C. for two weeks) was 99.82%, the “No modification, TPEDYTAFNGIELYQGX (SEQ ID NO: 26)” value (from here on “No modification, TPEDYTAFNGIELYQGX”) ([1]; 40° C. for two weeks) was 0% and the “No modification, VDGEICYVSCQNVK (SEQ ID NO: 18)” value (from here on “No modification, VDGEICYVSCQNVK”) ([1]; 40° C. for two weeks) was 44.85%. The “Oxidation M2.00, GYYLETGSV...TFIVYK (SEQ ID NO: 29)” value ([1]; 40° C. for two weeks) was 0%, the “Oxidation M198, GYYLETGSV...TFIVYK (SEQ ID NO: 29)” value (shortened to “Oxidation M198 … (SEQ ID NO: 29)”) ([1]; 40° C. for two weeks) was 0% and the “Oxidation of M, MLEGEESVVYVGK (SEQ ID NO: 24)” value (shortened to “Oxidation … (SEQ ID NO: 24)”) ([1]; 40° C. for two weeks) was 0.18%. For the same molecule, the “Carbamidomethy C147, VDGEICYVSCQNVK (SEQ ID NO: 18)” value ([1]; 40° C. for two weeks) was 33.59%, the “Carbamidomethy C151, VDGEICYVSCQNVK (SEQ ID NO: 18)” value ([1]; 40° C. for two weeks) was 18.45% and the Observation of solution ([1]; Freeze and thaw (6 cycles) −80° C. to room temperature) was “clear”. For the same molecule, the Observation of solution ([1]; Mechanical stress: 350 rpm shake, 4° C., 24 hr) was “clear”, the “Deamdation N206 … (SEQ ID NO: 29)” value ([1]; No treatment) was 0% and the “Deamidation N53, NAVK (SEQ ID NO 30)” value ([1]; No treatment) was 7.84%. For the same molecule, the “Deamidation N83, TPEDYTAFNGIELYQGX (SEQ ID NO: 26)” value ([1]; No treatment) was 17.43%, the “Deamidation N83 Deamidation Q89, TPEDYTAFNGIELYQGX (SEQ ID NO: 26)” value ([1]; No treatment) was 0% and the “Deamidation N137, ANTDVK (SEQ ID NO: 27)” value ([1]; No treatment) was 1.04%. For the same molecule, the “Deamidation N153, VDGEICYVSCQNVK (SEQ ID NO: 18)” value ([1]; No treatment) was 0.02%, the “Deamidation Q30 … (SEQ ID NO: 25)” value ([1]; No treatment) was 0% and the “Deamidation Q152 Deamidation N153 Carbamidomethy C151, VDGEICYVSCQNVK (SEQ ID NO: 18)” value ([1]; No treatment) was 0%. The “No modification, ANTDVK (SEQ ID NO: 27)” value ([1]; No treatment) was 98.96%, the “No modification … (SEQ ID NO: 25)” value ([1]; No treatment) was 100% and the “No modification, GYYLETGSV...TFIVYK (SEQ ID NO: 29)” value (from here on “No modification, GYYLETGSV...TFIVYK”) ([1]; No treatment) was 100%. The “No modification, MLEGEESVVYVGK” value ([1]; No treatment) was 99.78%, the “No modification, TPEDYTAFNGIELYQGX” value ([1]; No treatment) was 82.57% and the “No modification, VDGEICYVSCQNVK” value ([1]; No treatment) was 99.98%. The “Oxidation M2.00, GYYLETGSV...TFIVYK (SEQ ID NO: 29)” value ([1]; No treatment) was 0%, the “Oxidation M198 … (SEQ ID NO: 29)” value ([1]; No treatment) was 0% and the “Oxidation … (SEQ ID NO: 24)” value ([1]; No treatment) was 0.22%. For the same molecule, the “Deamdation N206 … (SEQ ID NO: 29)” value ([1]; Oxidation (H2O2)) was 0%, the “Deamidation N83, TPEDYTAFNGIELYQGX (SEQ ID NO: 26)” value ([1]; Oxidation (H2O2)) was 37% and the “Deamidation N83 Deamidation Q89, TPEDYTAFNGIELYQGX (SEQ ID NO: 26)” value ([1]; Oxidation (H2O2)) was 0%. For the same molecule, the “Deamidation N137, ANTDVK (SEQ ID NO: 27)” value ([1]; Oxidation (H2O2)) was 16.44%, the “Deamidation N153, VDGEICYVSCQNVK (SEQ ID NO: 18)” value ([1]; Oxidation (H2O2)) was 0% and the “Deamidation Q30 … (SEQ ID NO: 25)” value ([1]; Oxidation (H2O2)) was 0.07%. The “Deamidation Q152 Deamidation N153 Carbamidomethy C151, VDGEICYVSCQNVK (SEQ ID NO: 18)” value ([1]; Oxidation (H2O2)) was 0.31%, the “No modification, ANTDVK (SEQ ID NO: 27)” value ([1]; Oxidation (H2O2)) was 83.56% and the “No modification … (SEQ ID NO: 25)” value ([1]; Oxidation (H2O2)) was 99.93%. For the same molecule, the “No modification, GYYLETGSV...TFIVYK” value ([1]; Oxidation (H2O2)) was 19.17%, the “No modification, MLEGEESVVYVGK” value ([1]; Oxidation (H2O2)) was 99.88% and the “No modification, TPEDYTAFNGIELYQGX” value ([1]; Oxidation (H2O2)) was 63%. The “No modification, VDGEICYVSCQNVK” value ([1]; Oxidation (H2O2)) was 63.23%, the “Oxidation M2.00, GYYLETGSV...TFIVYK (SEQ ID NO: 29)” value ([1]; Oxidation (H2O2)) was 63.9% and the “Oxidation M198 … (SEQ ID NO: 29)” value ([1]; Oxidation (H2O2)) was 16.92%. The “Oxidation … (SEQ ID NO: 24)” value ([1]; Oxidation (H2O2)) was 0.12%, the “Carbamidomethy C147, VDGEICYVSCQNVK (SEQ ID NO: 18)” value ([1]; Oxidation (H2O2)) was 34.52% and the “Carbamidomethy C151, VDGEICYVSCQNVK (SEQ ID NO: 18)” value ([1]; Oxidation (H2O2)) was 1.93%. The Observation of solution ([1]; Oxidation: Hydroperoxide (0.005%) 40° C., 16 hr) was “clear”, the Observation of solution ([1]; Temperature (2 weeks) 4° C.) was “clear” and the Observation of solution ([1]; Temperature (2 weeks) 25° C.) was “clear”. For the same molecule, the Observation of solution ([1]; Temperature (2 weeks) 37° C.) was “clear”, the Observation of solution ([1]; Temperature (2 weeks) 40° C.) was “clear” and the Observation of solution ([1]; pH 4 and pH 9) was “clear”. The “Deamdation N206 … (SEQ ID NO: 29)” value ([1]; pH 9) was 11.84%, the “Deamidation N83, TPEDYTAFNGIELYQGX (SEQ ID NO: 26)” value ([1]; pH 9) was 19.1% and the “Deamidation N83 Deamidation Q89, TPEDYTAFNGIELYQGX (SEQ ID NO: 26)” value ([1]; pH 9) was 0%. For the same molecule, the “Deamidation N137, ANTDVK (SEQ ID NO: 27)” value ([1]; pH 9) was 23.95%, the “Deamidation N153, VDGEICYVSCQNVK (SEQ ID NO: 18)” value ([1]; pH 9) was 0.35% and the “Deamidation Q30 … (SEQ ID NO: 25)” value ([1]; pH 9) was 0.05%. The “Deamidation Q152 Deamidation N153 Carbamidomethy C151, VDGEICYVSCQNVK (SEQ ID NO: 18)” value ([1]; pH 9) was 28%, the “No modification, ANTDVK (SEQ ID NO: 27)” value ([1]; pH 9) was 76.05% and the “No modification … (SEQ ID NO: 25)” value ([1]; pH 9) was 99.95%. The “No modification, GYYLETGSV...TFIVYK” value ([1]; pH 9) was 88.16%, the “No modification, MLEGEESVVYVGK” value ([1]; pH 9) was 99.94% and the “No modification, TPEDYTAFNGIELYQGX” value ([1]; pH 9) was 80.9%. The “No modification, VDGEICYVSCQNVK” value ([1]; pH 9) was 8.76%, the “Oxidation M2.00, GYYLETGSV...TFIVYK (SEQ ID NO: 29)” value ([1]; pH 9) was 0% and the “Oxidation M198 … (SEQ ID NO: 29)” value ([1]; pH 9) was 0%. The “Oxidation … (SEQ ID NO: 24)” value ([1]; pH 9) was 0.61%, the “Carbamidomethy C147, VDGEICYVSCQNVK (SEQ ID NO: 18)” value ([1]; pH 9) was 71.71% and the “Carbamidomethy C151, VDGEICYVSCQNVK (SEQ ID NO: 18)” value ([1]; pH 9) was 12.45%. For the same molecule, the “aggregation by analytical SEC” value ([2]; 4-days incubation at 37° C. in the presence of 2.5% (v/v) β-mercaptoethanol) was “greatly suppressed”, the “aggregation formation by analytical SEC” value ([2]; 4° C. for 3 weeks in Buffer C (100 mM sodium phosphate, pH 7.0, 0.5 M sorbitol), vs freshly thawed protein) was “No noticeable change” and the “aggregation formation by analytical SEC” value ([2]; 37° C. for one week in Buffer C) was “clearly showed aggregation peaks”. The “free sulfhydryl groups (Ellman's reagent assay)” value ([2]; SG-11 (SEQ ID NO:9)) was “presence of free sulfhydryl groups”.
